{"source": "paper PMC3104014", "about": "(The Biochemical journal, 2010)", "proteins": {"B1": {"name": "rat RNF4 RING domain (residues 124-194) (domain or fragment, UniProt O88846 124-194, looked up)", "chain": "GTTGLRPSGTVSCPICMDGYSEIVQNGRLIVSTECGHVFCSQCLRDSLKNANTCPTCRKKINHKRYHPIYI"}}, "target": "the molecule itself", "experiment": "SEC-MALS", "data": [{"protein": "B1", "values": [{"measurement": "stoichiometry N", "result": 2}]}]}
